Sequences and labels used below:
B1: variant 6-17 (Fc fusion)
VHH: EVQLVESGGGLVQPGGSLRLSCAASGNTGSTGYMGWFRQAPGKEREMVAGVINDGSTVYADSVKGRFTISADNSKNTAYLQMNSLKPEDTAVYYCARLATSHQDGTGYLFDYWGQGTLVTVSS
B2: variant 6-5 (Fc fusion)
VHH: EVQLVESGGGLVQPGGSLRLSCAASGRTFTMGWFRQAPGKEREFVASTNSAGSTNYADSVNGRFTISADNSKNTAYLQMNSLKPEDTAVYYCTTVDQYFDYWGQGTLVTVSS
B3: variant 6-12 (Fc fusion)
VHH: EVQLVESGGGLVQPGGSLRLSCAASGSTYTTYSMGWFRQAPGKEREFVAAISGSENVTSYADSVKGRFTISADNSKNTAYLQMNSLKPEDTAVYYCARVDDYMDVWGQGTLVTVSS
B4: variant 6-16 (Fc fusion)
VHH: EVQLVESGGGLVQPGGSLRLSCAASGFTFDDAAMGWFRQAPGKEREFVAHISWSGGSTYYADSVKGRFTISADNSKNTAYLQMNSLKPEDTAVYYCATFGATVTATNDAFDIWGQGTLVTVSS
B5: variant 6-4 (Fc fusion)
VHH: EVQLVESGGGLVQPGGSLRLSCAASGFTRDYYTMGWFRQAPGKEREFVAAISRSGSLTSYADSVKGRFTISADNSKNTAYLQMNSLKPEDTAVYYCANLAYYDSSGYYDYWGQGTLVTVSS
B6: variant 6-10 (Fc fusion)
VHH: EVQLVESGGGLVQPGGSLRLSCAASGSIASIHAMGWFRQAPGKEREFVAAISRSGGFGSYADSVKGRFTISADNSKNTAYLQMNSLKPEDTAVYYCARDDKYYDSSGYPAYFQHWGQGTLVTVSS
B7: variant 6-6 (Fc fusion)
VHH: EVQLVESGGGLVQPGGSLRLSCAASGTTLDYYAMGWFRQAPGKERELVAAISWSGGSTAYADSVKGRFTISADNSKNTAYLQMNSLKPEDTAVYYCAREDYYDSSGYSWGQGTLVTVSS
B8: variant 6-18 (Fc fusion)
VHH: EVQLVESGGGLVQPGGSLRLSCAASGLTFRNYAMGWFRQAPGKEREFIAGMMWSGGTTTYADSVKGRFTISADNSKNTAYLQMNSLKPEDTAVYYCAREGYYYDSSGYLNYFDYWGQGTLVTVSS
B9: variant 6-19 (Fc fusion)
VHH: EVQLVESGGGLVQPGGSLRLSCAASGSILSIAVMGWFRQAPGKEREFVAAISPSAVTTYYADSVKGRFTISADNSKNTAYLQMNSLKPEDTAVYYCAIGYYDSSGYFDYWGQGTLVTVSS
B10: variant 6-14 (Fc fusion)
VHH: EVQLVESGGGLVQPGGSLRLSCAASGITFRFKAMGWFRQAPGKEREFVAAVSWDGRNTYYADSVKGRFTISADNSKNTAYLQMNSLKPEDTAVYYCASDYYYMDVWGQGTLVTVSS
B11: variant 6-13 (Fc fusion)
VHH: EVQLVESGGGLVQPGGSLRLSCAASGLTFNDYAMGWFRQAPGKEREFVAHIPRSTYSPYYADSVKGRFTISADNSKNTAYLQMNSLKPEDTAVYYCAFLVGPQGVDHGAFDVWGQGTLVTVSS
B12: variant 6-22 (Fc fusion)
VHH: EVQLVESGGGLVQPGGSLRLSCAASGRTFSEVVMGWFRQAPGKEREFVATIHSSGSTSYADSVKGRFTISADNSKNTAYLQMNSLKPEDTAVYYCVRVTSDYSMDSWGQGTLVTVSS
B13: variant 6-9 (Fc fusion)
VHH: EVQLVESGGGLVQPGGSLRLSCAASGFTFDYYAMGWFRQAPGKEREFVSAIDSEGRTSYADSVKGRFTISADNSKNTAYLQMNSLKPEDTAVYYCARWGPFDIWGQGTLVTVSS

This passage reports Kd results from US20210355194A1 (TWIST BIOSCIENCE, published 2021).

For the test, the target named is T1, Acro SARS-CoV-2 (COVID-19) S1 protein (SARS-CoV-2, UniProt P0DTC2 16-685).
T1 construct: also called SARS-CoV-2 S1
The test can be described thus: SPR.
The term Kd denotes a measure of binding affinity in units of concentration. A high value points to lower affinity. Molecule B1 returned a Kd of 65.2 nM. Molecule B2 showed a dissociation constant (Kd) of 24.9 nM. On to B3, for which the Kd stood at 50.2 nM. In the case of B4, the Kd came to 52.1 nM. This Kd and that of the molecule before are within 1.5-fold of each other.

The molecule B5 showed a Kd of 45.8 nM. This Kd and that of the molecule before are within 1.5-fold of each other. B6: the Kd was found to be 29.7 nM. This Kd is about 1.5-fold lower than that of the molecule before. Take B7: binding was put at a Kd of 6.4 nM.

In the case of B8, binding was put at a Kd of 30.1 nM. For the molecule B9, the Kd worked out at 71 nM. B10 displayed a Kd of 135 nM. With B11, binding was put at a Kd of 25.3 nM.

Turning to B12, binding was characterised by a dissociation constant (Kd) of 25.6 nM. B13 came in with a Kd of 18.5 nM.
